Measurements: the DeepSol protein solubility set

Assay: soluble on expression in E. coli; label from the status in PepcDB or PDB records
In the case of “MGSDKIHHHHHHMYLAYYGFAEKPFQLKPDPNFFFPSRGHKRAAAYLEYGLSQEDGFIIITGDVGAGKTTLMRYLFQKLRQERVAAAQLVSTRLDPDDALRMVAAAFGLSYEGLSKAALLLELERFMRKCERESTRVLLVVDEAQNLLPQTLEELRMLSNFQSDNRPLLQTFLLGQPEFRRTLLGSQMQQLRQRVIATYHLGPLDQAETRAYIEHRLQKAGWNGSPVLQDEIFEVIHNFSAGIPRKINLFCDRLLIMGCLEELQTLGKAEANEVMLDIQKEFDLAVSPE”, the “soluble on expression in E. coli” value is reported as “not soluble”.
With “MGSDKIHHHHHHMYNPVGVAAIGLGRWAYVMADAYTKSEKLKLVTCYSRTEDKREKFGKRYNCAGDATMEALLAREDVEMVIITVPNDKHAEVIEQCARSGKHIYVEKPISVSLDHAQRIDQVIKETGVKFLCGHSSRRLGALRKMKEMIDTKEIGEVSSIEAVFSNERGLELKKGNWRGEPATAPGGPLTQLGVHQIDNLQFLLGPVARVFNFGKPMYTEVENITVNQTLLEFEDGKQAYLGTNWACPGVFSINVYGTKANLFYQLDFSWWSNSDVTDEHSTLIKREFASMSDDPDNRILRDVKVDFESVDHLRVEVEEVADVIRNGGETEIGAEASLRNLAVVLAAVKSVHEKRPVEIAEIIG” the “soluble on expression in E. coli” value was “not soluble”.
In the case of “MGSDKIHHHHHHMYQIQIRIWFNFISKNKHHMLGTMSDSYDFFLSMSEITFALDPKYEFDKDIGCVLSLIKNTKELRFRINQYINKYKNKSPSLNRLNTFINTLEENENFYLLPAIENVSQTQLIKLQTSLSLVHLDELGKDAYIKSFNSNFSDFIDQYSMNGIDPKEVKGKKKIGEGFKANRVCRFCNNKNEKPTTFAKEAHAISESLGNKKIILNEECDLCNEYFDQNIERDIDTYLKLYSSFFRVKNKDNKVSKIKGKNFSFEYINTTIDGHDRHIDFVLAHTPTNSESCNSDSEPPKNVDLCFHQKIRKQNIYKSLVKFALSVIHDRKDLSEFNKAIEWIKSPTKFYEQLPKIAILKNYQFYCTEPALIVYISKNKKQGLPYAVGEFHYTFLTYIFIIPLFKSDEVEFSQQNNFDDFIKFFPQFKRMDEWSFEDFSDYEEKEFVLNMILSQRDEG”, the “soluble on expression in E. coli” value is reported as “not soluble”.
For “MGSDKIHHHHHHMYRVFVFDLDGTLLNDNLEISEKDRRNIEKLSRKCYVVFASGRMLVSTLNVEKKYFKRTFPTIAYNGAIVYLPEEGVILNEKIPPEVAKDIIEYIKPLNVHWQAYIDDVLYSEKDNEEIKSYARHSNVDYRVEPNLSELVSKMGTTKLLLIDTPERLDELKEILSERFKDVVKVFKSFPTYLEIVPKNVDKGKALRFLRERMNWKKEEIVVFGDNENDLFMFEEAGLRVAMENAIEKVKEASDIVTLTNNDSGVSYVLERISTDCLDE”, the “soluble on expression in E. coli” value was “not soluble”.
With “MGSDKIHHHHHHMYYQLYELHHAALQPARTYADAIRLFYSNPLNPVSSTTWGRSIAAAAEMFERTTRRYGKPGFGITSTVVDGKEVRVQEKEVWSRPFCRLLHFERQLPARRKPDVKLLMVAPMSGHYATLLRGTVEAMLPHADVYITDWIDARMVPLSYGNFDLDDYIDYLIEMFHLLGPDASVMAVCQPSVPVLAAVALMEARGDPNLPSSMTLMGGPIDTRRNPTAVNRLAQEHGIEWFRDNVVMSVPWPNPGFMRPVYPGFLQLSGFMSMNLDRHIVAHEEFFMHLVKGDGDSAEKHREFYDEYLAVMDLTAEFYLQTVDTVFIRHALPKGEMTHRSERVDPASIRSVALLTVEGENDDISGIGQTKAAHDLCVNIPSGKRHHHLQPSVGHYGVFNGSRFRKEILPRIVRFVNENRGA” the “soluble on expression in E. coli” value was “not soluble”.
With “MGSDKIHHHHHHNEDNLKIKTIKGDSNELDHININFGYALNGYINSYYTINGSNKTKKTELIKLQKDSKNTNNLIDVSSGSDLIAHVGFEMNEESKDINFVIDEKKEDLEKGVFPSEGSDKEIEYEKLDMNNFTRTRYKVDKSTDDYYAKILASKRYKKYLYVSVLYATSDSSENNKEYSSTIDIIKINPENKKIKTIKSINLSNYFSEKYQNIENIGVSYASKYEDKMYILVNVLNTNIGDNSNSKFHLLEYNLEENKESIMELKTDSKMALAKAKLEANKLYMVMSNDYDNSSITELNLLTYNILDKSLDEDKYVLDNREKRGIRSIEIDSNKIVAYTSRLNSILSWDDKFMLYIINKNSKEIVYEGELQFNSSNSMLEFEIK” the “soluble on expression in E. coli” value was “not soluble”.
In the case of “MGSDKIHHHHHHPNDPIIYKKEGGAFLWLGDTAWELFHVLDKEEIVHYLDNRQEKGFTVIQAVILSELDGLDKPNAYGYLPLVDKDPTQITEGYFELVDFVIREAGKRGMYIGLLPTWANNVVEKDGNPALFNPDNAYTYGKILGTRYKNEAVIWILGGDRNVVTDKEFEIWQSMAKGIQEGNGGTQLMSYHPTGEISSHYWFHNESWLSFNILQSGHYRRMDPVYRFSGMYAQLNPIKPFVNAEPSYEDIPVLFWEYFDYAKFGKKKEDIIGDNGLIKDTTYFTDGIYDDYDIRMQAYWTYFSGAAGYTYGNNAIWQMYKPGGKYHVPCLTFWDGALDRPGAECMRYVKSLFTMYPLDRFRPDLSVLFGINYNDASYITPVLAKDKTFILVYLSQGQDVRIQMSKLRSLGKAYWFNPRNGARTLIGPVENKGIRTFNAPGEAGERGNDWILILEADDR”, the “soluble on expression in E. coli” value is reported as “not soluble”.
With “MGSDKIHHHHHHQEQVKVVDRTIRIGDAMEHPVPMKLSAFVDSITYVPLETTKSYVKDKMLISYVKPYWGVYPGSLFDKEGRFVANIGALGQGPGEESGFGYSIFYDRDRNIFYTQGDKIIQFDAKGKFTGKEIRIAYRDKGIEGKIASGLKNVYAMVKSGKDYLIVNYPDSIFWMDAELNVRHGDRIISDSLFLTPSGVGGGMPYTFSDYKDTTIFYNCFTDAIYTVTDTGLQKRWTLEFKGSKADNRCFLNDYKKLYLDEYVKIVSSSKGNVETMKEKAQNSELAQLIDNKKWVYHVSEGERYLFLWWLNLKAFSSAWRGYNESHIALYDKRTGEAVAIAGDGLIDDIDNGMTFFPRYGICNNAMVSSVWPFELKEYIQEKKAKGEAVSDRLIALADSLDDEQNPILVIAHLKK” the “soluble on expression in E. coli” value was “not soluble”.
With “MGSDKIHHHHHHQMEERLGNTSQELQSLQVQNIKLAGSLQHVAEKLCRELYNKAGAHRCSPCTEQWKWHGDNCYQFYKDSKSWEDCKYFCLSENSTMLKINKQEDLEFAASQSYSEFFYSYWTGLLRPDSGKAWLWMDGTPFTSELFHIIIDVTSPRSRDCVAILNGMIFSKDCKELKRCVCERRAGMVKPE” the “soluble on expression in E. coli” value was “not soluble”.
For “MGSDKIHHHHHHQRDLWNIFKLWGWTMLCCDFLAHHGTDCWTYHYSEKPMNWQRARRFCRDNYTDLVAIQNKAEIEYLEKTLPFSRSYYWIGIRKIGGIWTWVGTNKSLTEEAENWGDGEPNNKKNKEDCVEIYIKRNKDAGKWNDDACHKLKAALCYTASCQPWSCSGHGECVEIINNYTCNCDVGYYGPQCQFVIQCEPLEAPELGTMDCTHPLGNFSFSSQCAFSCSEGTNLTGIEETTCGPFGNWSSPEPTCQVIQCEPLSAPDLGIMNCSHPLASFSFTSACTFICSEGTELIGKKKTICESSGIWSNPSPICQKLDKSFSMIKEGDYN”, the “soluble on expression in E. coli” value was “not soluble”.
For “MGSDKIHHHHHHQSFTPGEIWPDNHQVHINAHGGGILYENGTYYWFGEHKTEGEAGNLANVGVHCYSSDDLYHWKDCGIALSVIENDPGHPISKGCILERPKVIYNPLTKKYVMWFHLEPKGAGYSGALSGIALSDRVTGPYTFLKAVRPNAGSWPINVLPIHKTTRRPSAEEERQCTGGSLPAHPDSLNILGRDMEQGQMARDMNLFVDDDGKAYHIYSSEENSTLHIAELDPTYTGYTGKYIRVFINRFMEAPAMFKKDGNYYLIMSGCSGWNPNAARSAIASSIWGEWKELGNPCIGQDADLTFHSQSTYILPVQGKKNQFIYMGDRWTPQNAIDGRYIWLPIHFEGPKPIIEWKDSWTLD”, the “soluble on expression in E. coli” value was “not soluble”.
In the case of “MGSDKIHHHHHHRSPQGQFTEDDNPNALVNGKIYNVYTMMRSFDITAGTPAIAIHYLRSEDSEKGSIPSDGSDVAEMYDDFLYTPTNGLLGSYWGKNYAIIYQCNDILDAIAEKETAGQTETEDIINKGEASFFRAYCYFNLVRAFGEVPLVTYKINDASEANIPKTTADKIYEQIDTDLKTAEESLPETWSTEYTGRLTWGAARSLHARTYMMRSDWDNMYKASTDVINKGLYNLKTPYNEIFTDDGENSGGSIFELQCTATAALPQSDVIGSQFCEVQGVRGAGQWDLGWGWHMATQLMADAYETGDPRKNATLLYFRKTDDEPITPENTNEPYGESPISPAMGAYFNKKAYTDPALRKEYTNKGFWVNIRLIRYSDVVLMAAEAANEKNIPGEAVDYLEMVRARARGTNTNILPKITTNDQGELREAIRHERRVELGLEPDRFYDLVRWGIASEVLHAAGKVNYQDKNALLPLPQSEIDKSKGVLVQNPDY”, the “soluble on expression in E. coli” value is reported as “not soluble”.
In the case of “MGSDKIHHHHHHSCGGKKNSGQLSDTAVQIVKPEFPQIVPFETGIETEQEILLSEIADSIRYIPLETNNKCLIRGLKGSNIIRTKEYFFLPWIDKLFQYTKDGKFIRTLGRKGGGPGEFNWIMQIDVDEKKGLVYMLTTTGKINIYSMETGKFIRAMKVPNIEVSEFAMLRVQDTIAATFMRNNNGKRKERIYLSNLKGDTLKIFNRWDLFDLNSKYRWMISSDIDRYMFHYKSHTCYKEYYNDTLFTITQETLEPRYIFQMGKYSLPIECRFEYLNGDGKRFQEVAAPYIQYNTIETDSYIFMPYSNWAGEKEQERQMAIYDKKAKNCFKVSTGHIKNDLTPGLPLRPITALDSHTLLYVWEAPELLEKAEKTPSILQIEPLKGLNEDDNPVMMIVYLKQP”, the “soluble on expression in E. coli” value is reported as “not soluble”.
In the case of “MGSDKIHHHHHHSCSSKPANTAKGEKGSDKTGKDLELKLSFQEGIAPGESLNEKLDFMEKLGVVGFEPGGGGLAGRVNEIKQALNGRNIKVSAICAGFKGFILSTDPAIRKECMDTMKEIIAAAGELGSTGVIIVPAFNGQVPALPHTMETRDFLCEQFNEMGTFAAQHGTSVIFEPLNRKECFYLRQVADAASLCRDINNPGVRCMGDFWHMTWEETSDMGAFISGGEYLQHVHVASRKRRSMPGEDGDADNYINGFKGLKMIGYNNYVSFECGCQGDRNVVVPAAVKLLREQWEQA”, the “soluble on expression in E. coli” value is reported as “not soluble”.
For “MGSDKIHHHHHHSDEKYPMPTSIDQNSLSAEAKAGAIKLKWTVPADSNYYYVKVTYTLPEDGKKCMRLASVNSDTMLVDNLLHRYGDINFTLQPCNRAGEASQSCSIMAQALPALKQIKTDRNPITLSAKQLYTDDQESSEGPIANLVDGRNDTYFHMSWSSPTPFPHYIVVDLGEENALSTFLFSYVCRDNNNKDNPKEMDILGSNTFDGKNYDESQTTLLASLSNLPNTKAASYESDIIKAGASYRYLWFKVKSSTSGSNWIALAELGLSKVIVKTYDPETGETTIE”, the “soluble on expression in E. coli” value was “not soluble”.
For “MGSDKIHHHHHHTEMEPKFTEPVNINGEDYYKALREYKKSDHPIVFGWYSEWTGTGTNMNNQLRGIPDSMDIVSLWGGAFNLTEAQKSDLKEVREKKGLRVLYCQHITDIGRSHTPASVENDFIVDGVQYNSKDEAMAAYWGWYGNYGDTSEEGQEKAIRKYARVIIDSINKYNYDGFDIDFEPNFGYSGNLSGNSDRMHIFLDELSKEFGPKSGTGRILMVDGEPQTLNKESGPLLDYYVVQAYYCRSDEGYSDALDGRFDRLLNKFGSIEDEATILSKTVWCEDFEKHKGDGGPEFTTRDGIVTYSLKGMAMYYRPGVDARIGGVGAYRFNLCRPVNDYFFMREVIQVLNPANH”, the “soluble on expression in E. coli” value was “not soluble”.
For “MGSDKIHHHHHHTHSVETPYGSVTFTVYGTPKPKRPAIFTYHDVGLNYKSCFQPLFRFGDMQEIIQNFVRVHVDAPGMEEGAPVFPLGYQYPSLDQLADMIPCILQYLNFSTIIGVGVGAGAYILSRYALNHPDTVEGLVLINIDPNAKGWMDWAAHKLTGLTSSIPDMILGHLFSQEELSGNSELIQKYRGIIQHAPNLENIELYWNSYNNRRDLNFERGGETTLKCPVMLVVGDQAPHEDAVVECNSKLDPTQTSFLKMADSGGQPQLTQPGKLTEAFKYFLQG”, the “soluble on expression in E. coli” value was “soluble”.
